This note sets out measurements from publication PMC7693655, “The Partner Switching System of the SigF Sigma Factor in Mycobacterium smegmatis and Induction of the SigF Regulon Under Respiration-Inhibitory Conditions” (Frontiers in Microbiology, 2020).

Usually stoichiometry N stands for a count of units in the complex or per binding partner.

The target of test [1] is RsbW1 (MSMEG_1803), purified from E. coli (pT7-7rsbW1) (M. smegmatis) (UniProt A0QTD7). Put plainly: native gel or EMSA; non-denaturing PAGE, CBB stain; 160 pmol RsbW1 mixed with increasing amounts of WT, S63A or S63E RsfB in binding buffer [40 mM Tris-HCl (pH 8.0), 0.01 mM EDTA, 10 mM MgCl2, 20% (v/v) glycerol], 30 min at 25°C. In general terms: In EMSA bound probe runs differently from free probe, usually more slowly.

The target in test [2] is T1, RsbW1 (MSMEG_1803), purified from E. coli (pT7-7rsbW1) (M. smegmatis, UniProt A0QTD7 1-138).
T1 construct: Anti-sigma factor RsbW1 of Mycobacterium smegmatis, locus MSMEG_1803, 138 amino acids; also called purified RsbW1; source: E. coli BL21 (DE3) with pT7-7rsbW1, purified (Ni-Sepharose)
T1 sequence (looked up): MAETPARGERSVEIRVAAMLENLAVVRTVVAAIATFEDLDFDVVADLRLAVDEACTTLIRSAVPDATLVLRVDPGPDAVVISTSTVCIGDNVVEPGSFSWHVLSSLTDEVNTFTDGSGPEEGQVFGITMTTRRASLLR
The test is described as above. The note with it: both partners purified.

Regarding “C-terminally His6-tagged S63A RsfB purified from E. coli (natural protein)”, in test [1], the stoichiometry N turned out to be 1.

B1: C-terminally His6-tagged WT RsfB (MSMEG_6127) purified from E. coli (natural protein, M. smegmatis, UniProt A0R5B0 1-119, looked up)
chain: MTSQDPANCTVEERRVGDITVVAVTGTVDMLTAPKLEDAIGSAAKSEPSAVVVDLSAVDFLASAGMGVLVAAHGELAPAVRLVVVADGPATSRPLKLVGIADVVDLFATLDEALSSLKT
notes: Anti-SigF antagonist RsfB of Mycobacterium smegmatis, locus MSMEG_6127; unphosphorylated when made in E. coli; also called RsfB-His6; source: E. coli BL21 (DE3) with pT7-7rsfB, purified (Ni-Sepharose twice, PD-10 desalting)
Consider B1, for which, in test [2], the “stoichiometry N” value was 1.
